The experiment is described as follows: Two-step treatment of hair tresses, color loss ΔE. As to conditions: for Color loss ΔE: 0.75 M H2O2, 1 M TA; for ΔE of color loss: 2500 μg/mL. The protocol:
After every fourth cycle the tresses were dried under air and color measurements were made using X-RITE® SP64 spectrophotometer (X-Rite, Grandville, Mich.) with 4 mm port. Color numbers were measured at D65/10° from reflectance, according to CIELAB76. Hair tresses (all 4 replicates) were placed under a card paper with punched out holes, making sure that the background was not visible. The port-hole of the spectrophotometer was centered on the hole to scan the hair sample underneath. The tress-bundle was turned over and placed under the card and an additional measurement was made. Average L*, a*, b* (color according to CIELAB76) values were recorded.
ΔE of color loss was calculated according to the following formula:
ΔE=√{square root over (((L1*−L0)̂2+(a1*−a0)̂2+(b1*−b0)̂2))}{square root over (((L1*−L0)̂2+(a1*−a0)̂2+(b1*−b0)̂2))}{square root over (((L1*−L0)̂2+(a1*−a0)̂2+(b1*−b0)̂2))}
L1*, a1* and b1* are L*, a* and b* values for a sample tress after treatment, L0*, a0* and b0* are L*, a* and b* values for untreated hair

B1: C277S-HC263: C277S variant of Thermotoga maritima perhydrolase fused via a flexible linker to hair-binding domain HC263 (protein)
chain: MAFFDLPLEELKKYRPERYEEKDFDEFWEETLAESEKFPLDPVFERMESHLKTVEAYDVTFSGYRGQRIKGWLLVPKLEEEKLPCVVQYIGYNGGRGFPHDWLFWPSMGYICFVMDTRGQGSGWLKGDTPDYPEGPVDPQYPGFMTRGILDPRTYYYRRVFTDAVRAVEAAASFPQVDQERIVIAGGSQGGGIALAVSALSKKAKALLCDVPFLCHFRRAVQLVDTHPYAEITNFLKTHRDKEEIVFRTLSYFDGVNFAARAKIPALFSVGLMDNISPPSTVFAAYNYYAGPKEIRIYPYNNHEGGGSFQAVEQVKFLKKLFEKGGPGSGGAGSPGSAGGPGSPSAQSQLPDKHSGLHERAPQRYGPEPEPEPEPIPEPPKEAPVVIEKPKPKPKPKPKPPAHDHKNQKETHQRHAAGSGGGGSPHHHHHH
On to B1, for which the “Color loss ΔE” value (750 μg/mL (E/H 3), 40 min/cycle) was determined as 8; the “Color loss ΔE” value (1500 μg/mL (E/H 5), 20 min/cycle) is reported as 7; the “Color loss ΔE” value (1750 μg/mL (E/H 7), 40 min/cycle) is on record as 10; the “Color loss ΔE” value (2500 μg/mL (E/H 10), 20 min/cycle) amounted to 10; the “Color loss ΔE” value (2500 μg/mL (E/H 10), 40 min/cycle) worked out at 9. Besides, the “ΔE of color loss” value (4 cycles) is listed as 4, the “ΔE of color loss” value (8 cycles) amounted to 6, the “ΔE of color loss” value (12 cycles) came out at 8 and the “ΔE of color loss” value (16 cycles) is recorded as 11.
